The values below come from patent US20230265192A1 (GIGAGEN, published 2023).

Experiment [1] concerns the target T1, His-tagged human CTLA-4 (CT4-H5229; Acro Biosystems) (human, UniProt P16410 36-161).
T1 construct: bought soluble protein; also called soluble human CTLA-4; recombinant human CTLA-4; not shown: His tag
In words: SPR (Carterra). In a few lines:
(§1)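 mAb supernatants captured, at two densities, on an anti-human IgG Fc lawn. His-tagged human CTLA-4 injected at 1.95, 7.8, 31.25, 125 and 500 nM in HBS-EPC pH 7.4 with 1.0 mg/mL BSA, as a non-regenerative series with 5-min association and 15-min dissociation. Double-referenced data fitted for ka, kd and KD.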

For experiment [2], the target named is T1, His-tagged human CTLA-4 (CT4-H5229; …). As to the kind of experiment: SPR (Carterra), soluble human CTLA-4.
Experiment [3] addresses T2, human CTLA-4 expressed on the cell surface (human, UniProt P16410 36-223). As to the kind of experiment: cell-based or functional assay.
Experiment [4] deals with T2, human CTLA-4 expressed on the cell …. As to the kind of experiment: flow cytometry, 10 µg/mL mAb, geometric MFI. (A flow cytometer gives signals particle by particle.)
For experiment [5], the target named is T3, CD27 on CHO cells (UniProt P26842 20-260, limits assumed).
T3 construct: whole, on cells; also called CD27+ CHO cells; irrelevant antigen (CD27)
T3 sequence (P26842 20-260 limits assumed): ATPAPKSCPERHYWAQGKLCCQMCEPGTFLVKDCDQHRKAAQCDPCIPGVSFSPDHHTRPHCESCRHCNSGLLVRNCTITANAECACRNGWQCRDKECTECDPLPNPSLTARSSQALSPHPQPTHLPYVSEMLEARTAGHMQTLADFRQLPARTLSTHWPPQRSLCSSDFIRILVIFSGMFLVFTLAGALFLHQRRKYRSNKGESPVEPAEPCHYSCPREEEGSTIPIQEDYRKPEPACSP
As to the kind of experiment: flow cytometry, 10 µg/mL mAb, geometric MFI.

Experiment [6] addresses T1, His-tagged human CTLA-4 (CT4-H5229; …). In words: SPR (Carterra). In a few lines:
as §1
The source holds these as a separate data set.

Experiment [7] concerns the target T4, His-tagged cynomolgus CTLA-4 (CT4-C5227; Acro Biosystems) (cynomolgus, UniProt G7PL88 36-161).
T4 construct: also called soluble cynomolgus CTLA-4; cyno CTLA-4
In words: BLI (Octet). In a few lines: (§2)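 Antibodies captured on anti-human IgG Fc (AHC) biosensors (Octet Red96); antigen analyte from 300 nM in 6 serial 1:3 dilutions. Kinetics from global fitting to a 1:1 binding model.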
(BLI is a label-free optical method that tracks binding on a fibre tip over time.)

The target in a further experiment is mouse CTLA-4 (mouse, UniProt P09793 36-161, limits assumed). In words: BLI (Octet). The gist of the method: as §2
mouse CTLA-4, sequence (P09793 36-161 limits assumed): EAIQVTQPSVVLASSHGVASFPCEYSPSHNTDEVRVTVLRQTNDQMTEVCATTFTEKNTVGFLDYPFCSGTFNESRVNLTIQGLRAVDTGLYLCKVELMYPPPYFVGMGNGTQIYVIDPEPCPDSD
The target of experiment [8] is T2, human CTLA-4 expressed on the cell …. In words: cell-based or functional assay. The source holds these as a separate data set.
Experiment [9] has as its target T3, CD27 on CHO cells. As to the kind of experiment: flow cytometry, mixed CTLA-4+ and CD27+ CHO cells. In a few lines:
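CHO cells stably expressing human CTLA-4 mixed with CD27-expressing CHO cells, then incubated with 10 μg/mL mAb for 30 min at 4 °C. Bound mAb detected with PE anti-human IgG Fc, CD27 cells gated by FITC anti-CD27; cells fixed in 4% paraformaldehyde before flow cytometry.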

Experiment [10] has as its target T4, His-tagged cynomolgus CTLA-4 …. In words: BLI (Octet), single antigen concentration. The method, then: Table 23. In vitro characterization of scFvs reformatted as full-length antibodies. kon, koff, and KD of the indicated CTLA-4 mAbs for soluble human CTLA-4 was determined by SPR (Carterra). Geometric MFI of the indicated CTLA-4 mAbs bound to CTLA-4⁺ or CD27⁺ CHO cells as detected by a secondary human IgG antibody and flow cytometry. Affinity (KD) of the indicated CTLA-4 mAbs for soluble cynomolgus CTLA-4 was determined by a single antigen concentration BLI measurement (Octet). […] Due to constraints on sample size in each Promega bioassay kit, this set of aCTLA-4 mAbs was analyzed using multiple plates (plate letters correspond to Plate A-D in FIG. 20D).
Antibodies were loaded at 5 μg/mL onto Protein A biosensors that were dipped into 80 nM antigen, and kinetic constants were calculated using a monovalent model.

Experiment [11] has as its target T5, rcmCTLA-4-Fc from ACROBiosystems (CT4-C5256) (cynomolgus monkey).
T5 construct: also called ACROBiosystems rcmCTLA-4 Fc; ACROBiosystems cCTLA-4 Fc
As to the kind of experiment: ELISA, against R&D rhCTLA-4 Fc on the same plate. The method, then:
(§3) Recombinant human CTLA-4-Fc (rhCTLA-4) from R&D Systems (7268-CT-100, FIGS. 36A-36C) was coated at 1 ug/mL, on the other half of each of the plates. […] RhCTLA-4-Fc (ACROBiosystems, CT4-H5229, FIGS. 36D-E) was coated at 1 ug/mL, on the other half of each of these plates. After coating, the plates were incubated overnight at 4° C.
(§4) The following day, the plates were blocked with 5% milk in PBST for 1 hour on a plate shaker at room temperature. […] Excess, unbound mAbs were removed by washing with PBST. Bound mAbs were then detected with an HRP-conjugated anti-kappa light chain antibody (0.5 ug/ml, Southern Biotech 2060-50). After incubation on a plate shaker for 1 hour at room temperature and washing, the plates were developed with TMB substrate. After sufficient signal was achieved, 1 N hydrochloric acid was added to stop development. Absorbance at 450 nm was read using a Spectramax i3x plate reader (Molecular Devices). EC50 values were calculated by plotting absorbance vs. the log of concentration using Prism (GraphPad).

The target in experiment [12] is T6, rcmCTLA-4-Fc from Sino Biological (90213-C02H) (cynomolgus monkey).
T6 construct: also called Sino Biological rcmCTLA-4 Fc
As to the kind of experiment: ELISA, against R&D rhCTLA-4 Fc on the same plate. How it is done: as §3, §4
(An ELISA detects its analyte on a solid surface through an enzyme-linked reagent.)

T1 sequence (P16410 36-161 limits assumed): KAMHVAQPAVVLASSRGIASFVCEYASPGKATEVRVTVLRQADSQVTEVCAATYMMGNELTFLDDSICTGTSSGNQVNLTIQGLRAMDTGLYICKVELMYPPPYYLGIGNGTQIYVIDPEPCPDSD
T2 sequence (P16410 36-223 limits assumed): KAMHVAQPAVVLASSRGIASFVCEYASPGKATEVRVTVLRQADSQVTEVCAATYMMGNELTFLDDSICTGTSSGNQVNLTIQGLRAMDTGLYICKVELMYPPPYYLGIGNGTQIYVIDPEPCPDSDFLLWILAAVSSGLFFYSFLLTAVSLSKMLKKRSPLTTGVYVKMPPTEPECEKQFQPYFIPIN
T4 sequence (G7PL88 entry or part of it limits assumed, form in doubt): as the sequence (P16410 36-161 limits assumed) above, with S14N, I18T, L106M counted along it

B1: antibody A1 (L1H1) (antibody, V domains shown)
VH: QVQLVESGGGVVQPGRSLRLSCAASGFTFSSFGMHWVRQAPGKGLEWVAVIWYDGRNKYYVDSVKGRFTISRDNSNNTLYLQMNSLRAEDTAVYYCARGEFFGEFFDYWGQGTLVTVSS
VL: EIVLTQSPGTLSLSPGEGATLSCRASQSFSSNYLAWYQQKPGQAPRLLIYGASSRATGIPDRFSGSGSGTDFTLTISRLEPEDFAVYYCQQYGTSPFTFGPGTKVDIK
notes: also called aCTLA-4.9; CTLA4.A1
On to B1, for which the Kd worked out at 0.77 nM in experiment [1]; 0.77 nM in experiment [2]; 0.77 nM in [6]; 0.96 nM in [7]; 51 nM with mouse CTLA-4; 1 nM in experiment [10]. For the same molecule, the koff in experiment [1] and in [2] was 0.00016 s⁻¹ each time. Further, the kon in experiment [1] and in [2] was 210000 M⁻¹ s⁻¹ each time. Moreover, in [3], the “Promega assay % inhibition” value came to 43.2%. Further, in experiment [3], the “Promega assay antagonist (EC50, ug/mL)” value was 0.13 µg/mL. For the same molecule, the “MFI of CTLA-4+ CHO cells” value in [4] came out at 1330. The “MFI of CD27+ CHO cells” value in the experiment with CD27 on CHO cells [5] turned out to be 18.5. For the same molecule, the “Cell-based blocking activity EC50” value in experiment [8] came out at 0.13 µg/mL. Moreover, the “Cell-based blocking activity max signal (RLU)” value in experiment [8] turned out to be 237 RLU. In the experiment with CD27 on CHO cells [9], the binding result is “no binding (tested: 10 µg/mL)”.

B2: Ipilimumab (antibody, V domains shown)
VH: QVQLVESGGGVVQPGRSLRLSCAASGFTFSSYTMHWVRQAPGKGLEWVTFISYDGNNKYYADSVKGRFTISRDNSKNTLYLQMNSLRAEDTAIYYCARTGWLGPFDYWGQGTLVTVSSA
VL: not shown
notes: also called commercial ipilimumab; Yervoy
With B2, the results for the “Fold Change (EC50 of cyno divided by EC50 of human)” value in experiment [11] and in experiment [12] were 1.3 and 1.6, respectively.

Usually Kd stands for the equilibrium constant for the complex coming apart. A low value points to higher affinity. Broadly, the koff is a measure of how fast the partners let go of each other. Read a low koff as slow dissociation. As usually defined, the kon is the rate constant with which the complex forms. A higher kon goes with fast association.
